For assay [1], the target named is T1, human HER2-Fc (R&D Systems, cat. no. 1129-ER-050) (human, UniProt P04626 23-652).
T1 construct: Bought; also called human epidermal growth factor receptor 2; not shown: Fc part of the bought fusion protein
Kind of assay: SPR Biacore 2000, HER2-Fc on CM5 chip, 1:1 Langmuir; sample (0) before stability test. In general terms: SPR reads the build-up and loss of mass on a sensor chip optically.

Assay [2] has as its target T1, human HER2-Fc (R&D Systems, cat. no. …). Kind of assay: SPR Biacore 2000, HER2-Fc on CM5 chip, 1:1 Langmuir; sample (2w) after 2 weeks at 37 C.
The target is the same in assay [3]. Kind of assay: SPR Biacore 2000, HER2-Fc on CM5 chip, 1:1 Langmuir; KD after 2 weeks at 37 C against KD before.
The target is the same in assay [4]. Kind of assay: SPR Biacore 2000, HER2-Fc on CM5 chip, 1:1 Langmuir; sample (0) before stability test; reference Z02891 (0).
For assay [5] the target is unchanged. Put plainly: SPR Biacore 2000, HER2-Fc on CM5 chip, 1:1 Langmuir; sample (2w) after 2 weeks at 37 C; reference Z02891 (2w).
Assay [6] addresses T2, human PDGF-Rβ (R&D Systems, cat. no. 385-PR-100/CF) (human, UniProt P09619 33-530, limits assumed).
T2 construct: Bought; also called platelet-derived growth factor receptor beta
Put plainly: SPR Biacore 2000, PDGF-Rβ on CM5 chip, 1:1 binding with mass transfer; sample (0) before stability test.

In assay [7] the target is T2, human PDGF-Rβ (R&D Systems, cat. no. …). Put plainly: SPR Biacore 2000, PDGF-Rβ on CM5 chip, 1:1 binding with mass transfer; sample (2w) after 2 weeks at 37 C.
Assay [8] shares this target. Put plainly: SPR Biacore 2000, PDGF-Rβ on CM5 chip, 1:1 binding with mass transfer; KD after 2 weeks at 37 C against KD before.
Assay [9] has the same target. Kind of assay: SPR Biacore 2000, PDGF-Rβ on CM5 chip, 1:1 binding with mass transfer; sample (0) before stability test; reference Z15805 (0).
For assay [10] the target is unchanged. Kind of assay: SPR Biacore 2000, PDGF-Rβ on CM5 chip, 1:1 binding with mass transfer; sample (2w) after 2 weeks at 37 C; reference Z15805 (2w).
For assay [11], the target named is T3, human C5 (Quidel, cat. no. A403) (human, UniProt P01031 19-673; P01031 678-1676, limits assumed).
T3 construct: Bought protein; also called hC5; human complement component 5
Put plainly: BLI (ForteBio), compound captured on HSA sensor, human C5 0.79-25 nM, 1:1 model.

In general, Kd refers to the equilibrium constant for the complex coming apart. Low values mean a tighter complex, high ones a looser complex. One may read the koff as a measure of how fast the partners let go of each other. Read a low koff as a long-lived complex. One may read the kon as the rate constant with which the complex forms.

T2 sequence (P09619 33-530 limits assumed): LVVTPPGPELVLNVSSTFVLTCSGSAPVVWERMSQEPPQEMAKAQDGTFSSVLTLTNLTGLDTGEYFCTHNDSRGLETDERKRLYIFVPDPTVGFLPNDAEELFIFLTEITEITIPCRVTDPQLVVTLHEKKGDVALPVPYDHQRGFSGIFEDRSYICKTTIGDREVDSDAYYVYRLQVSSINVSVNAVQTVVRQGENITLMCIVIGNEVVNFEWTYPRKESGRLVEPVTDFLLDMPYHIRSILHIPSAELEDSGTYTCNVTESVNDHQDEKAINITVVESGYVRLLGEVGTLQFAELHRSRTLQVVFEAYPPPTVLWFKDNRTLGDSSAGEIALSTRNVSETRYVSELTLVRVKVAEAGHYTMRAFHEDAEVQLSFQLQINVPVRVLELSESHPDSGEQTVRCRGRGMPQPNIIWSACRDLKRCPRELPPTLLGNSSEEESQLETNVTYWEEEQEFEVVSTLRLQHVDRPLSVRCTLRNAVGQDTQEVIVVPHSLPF

B1: Z17342 (designed binder)
chain: MGSSHHHHHHLQAEAKYAKEMRNAYWEIALLPNLTNQQKRAFIRKLYRQPEQSSELLSEAKKLSESQAPK
For the molecule B1, the Kd turned out to be 1.8 nM in assay [1] and 2.3 nM in [2]. The figures for the koff in assay [1] and in [2] were 0.00157 s⁻¹ and 0.0015 s⁻¹, respectively. Moreover, the kon in [1] amounted to 894000 M⁻¹ s⁻¹; in assay [2], 649000 M⁻¹ s⁻¹. Moreover, the “KD(2w)/KD(0)” value in [3] came to 1.31 ratio. In addition, the KDInv/KDOrig worked out at 33 ratio in assay [4] and 37 ratio in [5].

B2: Z17344 (designed binder)
chain: MGSSHHHHHHLQAEAKYAKELIEAAAEIDALPNLTRRQWNAFIKKLVRQPEQSSELLSEAKKLSESQAPK
Take B2: the Kd in assay [6] is 1.2 nM; in assay [7], 1.1 nM. The koff is 0.0616 s⁻¹ in assay [6] and 0.0623 s⁻¹ in assay [7]. The kon was 5.15e+07 M⁻¹ s⁻¹ in [6] and 5.62e+07 M⁻¹ s⁻¹ in assay [7]. In [8], the “KD(2w)/KD(0)” value is 0.93 ratio. Also, the KDInv/KDOrig in assay [9] amounted to 6.19 ratio; in assay [10], 3.88 ratio.

B3: PSI0383 (designed binder)
chain: AEAKYAKEVLEAWDEIDRLPNLTIEQWLAFINKLDRQPEQSSELLSEAKKLSESQAPKVEGSLAEAKEAANAELDSYGVSDFYKRLIDKAKTVEGVEALKDAILAALP
notes: positions 52-53 changed from ND to SE against PSI0242
With B3, the “Rel. KD” value in assay [11] was 2.1 ratio to PSI0242.

Source of the values: patent USRE49495E1, “Binding polypeptides having a mutated scaffold” (Affibody AB, priority 2013, dated 2023).
